Paper PMC7663122, “Protein-Assisted Room-Temperature Assembly of Rigid, Immobile Holliday Junctions and Hierarchical DNA Nanostructures”

Legend:
[1] = biological target: T1, Redβ (single-strand annealing protein) (UniProt P03698 1-261); test: SEC, gel and AFM; excess Redβ (ssDNA/Redβ 1:25 stated), 25 °C, 1 mM MgCl2; B1 buffer: 50 mM Tris-HCl pH 8.0, 150 mM NaCl, 1 mM MgCl2, 25 °C (sticky-end assemblies); 44mer coating and annealing at 37 °C; SEC in 100 mM Tris-HCl pH 8.0, 150 mM NaCl, 1 mM MgCl2; details: protein: recombinant, tags: Strep-tag II, four-way junction
T1 sequence: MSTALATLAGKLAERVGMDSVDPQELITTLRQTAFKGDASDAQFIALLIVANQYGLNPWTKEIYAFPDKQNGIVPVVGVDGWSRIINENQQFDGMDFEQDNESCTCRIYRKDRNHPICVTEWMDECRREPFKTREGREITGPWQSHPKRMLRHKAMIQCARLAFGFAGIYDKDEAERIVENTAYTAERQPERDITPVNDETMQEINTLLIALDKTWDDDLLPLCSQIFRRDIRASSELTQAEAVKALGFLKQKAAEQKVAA

[2] = biological target: T1, Redβ (single-strand annealing protein); test: EMSA (agarose) and AFM; strands coated first at 37 °C, then mixed; ssDNA/Redβ 1:1 to 1:4; weak interaction, residual free ssDNA at 1:1; B1 buffer: 50 mM Tris-HCl pH 8.0, 150 mM NaCl, 1 mM MgCl2, 25 °C (sticky-end assemblies); 44mer coating and annealing at 37 °C; SEC in 100 mM Tris-HCl pH 8.0, 150 mM NaCl, 1 mM MgCl2; details: protein: recombinant; tags: Strep-tag II; blunt-ended immobile four-way junction, 22 bp arms
[3] = biological target: T1, Redβ (single-strand annealing protein); test: EMSA (agarose) and AFM; strands coated first, then mixed; ssDNA/Redβ 1:1 and 1:2; completely coated at 1:1, slightly increased affinity vs 44mer; B1 buffer: 50 mM Tris-HCl pH 8.0, 150 mM NaCl, 1 mM MgCl2, 25 °C (sticky-end assemblies); 44mer coating and annealing at 37 °C; SEC in 100 mM Tris-HCl pH 8.0, 150 mM NaCl, 1 mM MgCl2; details: protein: recombinant; tags: Strep-tag II; blunt-ended immobile four-way junction, 33 bp arms
[4] = biological target: T1, Redβ (single-strand annealing protein); test: EMSA (agarose), SEC and AFM; strands coated first, then mixed; ssDNA/Redβ 1:1 (incomplete) and 1:2 (saturated); B1 buffer: 50 mM Tris-HCl pH 8.0, 150 mM NaCl, 1 mM MgCl2, 25 °C (sticky-end assemblies); 44mer coating and annealing at 37 °C; SEC in 100 mM Tris-HCl pH 8.0, 150 mM NaCl, 1 mM MgCl2; details: protein: recombinant; tags: Strep-tag II; blunt-ended immobile four-way junction, 44 bp arms

B1: S1S4 sticky-end Holliday junction (structured_DNA)
DNA 1: GATTCCTTCCGGGCGAATTTACCCCAGTGAACGCTGGTCCCCGCGGTCATGCTGAAGGCGATAGTA
DNA 2: GCGGGGACCAGCGTTCACTGGGTTATTGGGTATGACGAGCTTAGATTTGGTATATGGTCTCGACTA
DNA 3: TAGTCGAGACCATATACCAAATCTAAGCTCGTCATACCCAATAAGATGTACGTTGGCGGACAGTTACATATTGTGCGCTGCCGGTGGC
DNA 4: GCCACCGGCAGCGCACAATATGTAACTGTCCGCCAACGTACATCGTAAATTCGCCCGGAAGGAATCCCGTAACGAGGCCACATTTTTG
- binding result ([1]; two 3' overhangs 22 nt (strands 1 and 4)): binds

B2: 44mer Holliday junction (structured_DNA)
DNA 1: CGATGCGAAATCTGTACGCGCACCACGTGAAGGTGCTAGTCCCC
DNA 2: GAATGTGTTGATGGTTAAGTTCTGCGCGTACAGATTTCGCATCG
DNA 3: GTGTCTATCATTAGCGGCTCAAGAACTTAACCATCAACACATTC
DNA 4: GGGGACTAGCACCTTCACGTGGTTGAGCCGCTAATGATAGACAC
- binding result [2]: binds

B3: 66mer Holliday junction (structured_DNA)
DNA 1: ATGCCGCATACAACAAGTGGGGGGATGAATAGGATGTACTGCCTTTTTTATCGACTGTCCAATATG
DNA 2: CATATTGGACAGTCGATAAAAAAGGCAGTACATACTTGGTCCACTCTGGTACAAGATGAGGTGGAT
DNA 3: ATCCACCTCATCTTGTACCAGAGTGGACCAAGTAGTGCGCGATTGACGTTCGAGGCGGACTCTCCT
DNA 4: AGGAGAGTCCGCCTCGAACGTCAATCGCGCACTCCTATTCATCCCCCCACTTGTTGTATGCGGCAT
- binding result [3]: binds

B4: 88mer Holliday junction (structured_DNA)
DNA 1: CAGTTCCCTAAGACATCGACGTAGGACCTTGATCAACGCAGCTATGACTTCAGAGATTCTCTTATCTGGAAGCGTCCACGAACCGGCC
DNA 2: GGCCGGTTCGTGGACGCTTCCAGATAAGAGAATCTCTGAAGTCATTTGTACACTTTTCTATTCACGAGCAAAGCCTGGTATACTAGAA
DNA 3: TTCTAGTATACCAGGCTTTGCTCGTGAATAGAAAAGTGTACAAACCCACATTGCCATCGGGCGAAATGGGGTGTGCAGCGCATGCTCG
DNA 4: CGAGCATGCGCTGCACACCCCATTTCGCCCGATGGCAATGTGGGTAGCTGCGTTGATCAAGGTCCTACGTCGATGTCTTAGGGAACTG
- binding result [4]: binds

B5: S5S8 sticky-end Holliday junction (structured_DNA)
DNA 1: ATGTTGATCGGGAGAGGTCGAACCCTCTTTGATATTTGTGACTTTCGGGGCAACTATTTCCTCGGCGACCACGTTCGGTGACGGACCT
DNA 2: AGGTCCGTCACCGAACGTGGTCGCCGAGGAAATAGTTGCCCCGACAGGAAGCTAACTAACATGAGACAAAAATGTGGCCTCGTTACGG
DNA 3: TCTCATGTTAGTTAGCTTCCTGACGCCTGGCCGTATCTTCGGCTTACTATCGCCTTCAGCATGACC
DNA 4: AGCCGAAGATACGGCCAGGCGTAAGTCACAAATATCAAAGAGGGTTCGACCTCTCCCGATCAACAT
- binding result ([1]; two 3' overhangs 22 nt (strands 2 and 3)): binds
